For one molecule, Kd results are on record in publication PMC10954734, “Structure of antiviral drug bulevirtide bound to hepatitis B and D virus receptor protein NTCP” (Nature Communications, 2024).

In the assay the target is T1, complex of detergent-solubilized, biotinylated NTCP and BLV (Homo sapiens NTCP; bulevirtide from …).
T1 construct: also called NTCP-BLV complex; source: BLV: provided peptide; not shown: Avi-tag, C-terminal, kept; eYFP, C-terminal, cleaved; rho-1D4, C-terminal, cleaved
Put plainly: ELISA; multipoint ELISA at 4 C; 40 nM biotinylated NTCP immobilised on a neutravidin-coated plate in the presence of BLV, serial dilutions of purified Fab for 20 min, detection with HRP-conjugated protein L; EC50 from a sigmoidal dose-response fit; apparent. The conditions noted are these: both partners purified. (In an ELISA, binding on a coated surface is turned into a signal by an enzyme label.)

B1: Fab3 (Fab, V domains shown)
VH: EVQLVESGGGLVQPGGSLRLSCAASGFNVSSSYIHWVRQAPGKGLEWVASISPYYSYTSYADSVKGRFTISADTSKNTAYLQMNSLRAEDTAVYYCARYQYDYYYSYYAGLDYWGQGTLVTVSS
VL: DIQMTQSPSSLSASVGDRVTITCRASQSVSSAVAWYQQKPGKAPKLLIYSASSLYSGVPSRFSGSRSGTDFTLTISSLQPEDFATYYCQQYRYSLITFGQGTKVEIK
notes: also called Fab specific to the NTCP-BLV complex
On to B1, for which the Kd was determined as 8 nM.
